“Also recorded” adds a separate entry of the source.
Key:
[1] = tested on: MCF-10A cells; test: Accumulation / internalization of antibody conjugate in MCF-10A cells (fluorescence imaging); type: cell-based, human; settings: 30 minutes pretreatment, FIG. 14
[2] = molecular target: T1, STAT3 (Homo sapiens, UniProt P40763); test: Biacore T200 affinity measurement, captured antibody vs recombinant human STAT3-GST; type: binding
Description: Biacore T200 was used to measure the affinity of anti-STAT and anti-STAT-phosphorothioate (PS) antibody (compound 901) to human STAT3. Anti-human Fc antibody (GE, BR-1008-39) was immobilized on a CM5 sensor chip to approximately 1000 RU using standard NHS/EDC coupling methodology. Antibodies (approximately 10 ug/ml) were captured for 60 seconds at a flow rate of 10 ul/min Recombinant human STAT3-GST was serially diluted 2-fold into running buffer (HBS-EP+, starting from […]). All measurements were conducted at a flow rate of 30 ul/min Surfaces were regenerated with 3M MgCl2 (from human antibody kit) for 60 seconds. A 1:1 (Langmuir) binding model was used to fit the data. The results are shown in Table 2, below for anti-STAT3 antibody, ST3G12, and the conjugated anti-STAT3 antibody, ST3G12-PS (compound 901).

[3] = molecular target: GST protein (Schistosoma japonicum, UniProt P08515); test: Biacore binding to GST protein (specificity control)
[4] = molecular target: T2, mouse STAT3 (Mus musculus, UniProt P42227); test: Cell binding assay on fixed, permeabilized mouse cell lines (flow cytometry); settings: FIG. 3C
T2 construct: endogenous in cells; host or cells: CT-26, MC-38
Description: (§1) Next, the binding of the candidate anti-STAT3 antibodies to cellular targets was tested in cell binding assays using MDA-MB-435 breast cancer cells and U251 cells. The cells were seeded overnight in a 96 well plate, then fixed with PFA and permeabilized with methanol. Cells were incubated with serial dilutions of the anti-STAT3 antibody candidates ST1A5, ST3G12 and ST5G12 for one hour and 30 minutes. Following incubation, the cells were washed and incubated for 30 minutes with phycoerythrin (PE) conjugated anti-human IgG. Fluorescence was measured on an Intellicyte high-throughput flow cytometry analyzer. […] Bevacizumab (Avastin), a monoclonal antibody that inhibits vascular endothelial growth factor A (VEGF-A) was used as a negative control.
(§2) An isotype control was used as a negative control. The experimental procedure was the same as described above for FIGS. 3A and 3B.

[5] = tested on: cellular antigens in U251 cells; test: Cell binding of naked versus PS-conjugated antibody in U251 cells (HTFC); design: species or system human; settings: permeabilized U251 cells, FIG. 4
Description: Cell binding of naked anti-STAT3 ST3G12 antibodies (ST3G12) versus compound 901 (ST3G12-PS) was assessed in U251 cells. Cells were lifted, permeabilized and incubated with increasing amounts of naked anti-STAT antibodies and PS anti-STAT antibody (compound 901) in PBS+/−2% fetal bovine serum (FBS). After 45 minutes at room temperature, cells were washed twice and incubated with phycoerythrin (PE) conjugated-anti-human IgG for 20 minutes at room temperature in the dark. Cells were then washed and analyzed by high throughput flow cytometry (HTFC). The results are shown in FIG. 4 for assessment of antibody binding to U251 cells.

[6] = tested on: STAT3 phosphorylation; test: IL-6 stimulated STAT3 phosphorylation ELISA on cell lysates; type: cell-based, human; settings: overnight antibody, IL-6 10 or 40 ng/ml for 20 minutes
Description: Normal breast epithelial cells (MCF-10A) and ER+ breast cancer cells (MCF-7) were treated with naked ST3G12 antibody and conjugated ST3G12-PS antibody (compound 901) (shown as “OS-STAT3” in FIGS. 8A and 8B) to determine the effect on STAT3 phosphorylation. Cells were pre-treated overnight with antibody, and then stimulated with various concentrations of IL-6 for 20 minutes (10 ng/ml or 40 ng/ml). IL-6 is a STAT3 activator. Cells were then lysed and the protein lysates were subjected to ELISA to determine the phosphorylation status. […] “OS-AIP” refers to an oligosaccharide conjugated bacterial AIP protein, used as a control.

[7] = tested on: U251 cells; test: Accumulation / internalization of antibody conjugate in U251 cells (fluorescence imaging); type: cell-based, human; settings: 20 ug/mL, 2 hours at 37° C.
Description: The same experiments were repeated in the U251 glioblastoma cell line, which also has high levels of STAT3 activity, as described in FIG. 7A. U251 cells were treated with 10 ug/ml of ST3G12-PS antibody conjugate compound 901 in increasing proportions of human serum (1%, 5%, 10% and 20%), for 90 minutes at 37° C. Cells were then fixed, permeabilized and stained with anti-human IgG Alexa546. […] MCF-10A, a normal human mammary epithelial cell line with low levels of STAT3 activity (STAT3 low), was described in FIGS. 7A and 7B. This cell line was also tested according to the above protocol. […] The results of another experiment that was performed to determine accumulation of anti-STAT3 antibody conjugate (e.g. compound 901) are shown in FIG. 7C.
Experiments were carried out to confirm that the ST3G12-PS antibody conjugate (compound 901) was penetrating the cells. Briefly, previously cleaned glass coverslips were coated with collagen for 2 hours at 37° C. 100,000 U251 cells were seeded on the coverslips. Media was removed, and cells were rinsed once with fluorobrite. Next, 20 ug/mL of the specified antibody was added for 2 hours at 37° C. […] In FIG. 10E, red fluorescence indicates the plasma membrane, blue fluorescence indicates the nuclei and green florescence represents the intracellular accumulated ST3G12-PS antibody conjugate compound 901a. […]

[8] = tested on: Human colon cancer HCT116 cells; test: Penetration of 3D tumor spheroids, HCT116 cells; type: cell-based; settings: alexa fluor 488 labeled, FIG. 18C
Description: Next, experiments were carried out to determine the effect of the STAT3 antibody conjugate on penetration of tumor cells and on tumor cell growth in a three-dimensional (3D) model. 3D in vitro models, such as a tumor spheroid model, have been used in cancer research as an intermediate model between in vitro cancer cell line cultures and in vivo tumor. Human colon cancer HCT116 cells were grown in a 3D tumor spheroid model in a ULA (ultra low attachment) plate, and treated with alexa fluor 488 dye labeled anti-STAT3 monoclonal antibody or alexa fluor labeled anti-STAT3 antibody conjugate (compound 901) for one hour to initiate the uptake. Thereafter, spheres were imaged every 10 min for the next 80 hours with ImageExpress. FIG. 18C are images that show detection of the alexa fluor. […] Next, the effect of the anti-STAT3 antibody conjugate (compound 901) on the growth of 3D tumor spheroids was examined DU145 human prostate cancer cells were seeded in ULA plate. Spheres were allowed to form for 72 hours then treated with the indicated antibodies for additional 5 days. Growth was monitored by ImageXpress HCS confocal microscopy (FIG. 19A). CTG assay was used to determine percent viability in FIG. 19B and percent killing in FIG. 19C. Experiments were done in triplicate wells. Error bars represent one standard deviation.

[9] = mouse, in vivo, iv
Description: (§3) The pharmacokinetic properties of the anti-STAT3 antibody conjugates were examined in athymic nude mice.

[10] = Pharmacokinetics in athymic nude mice; settings: administered intravenously
Description: as §3

[11] = molecular target: T1, STAT3; test: Cell binding assay on fixed, permeabilized human cells (PE anti-human IgG, flow cytometry); design: endogenous in cells; host or cells: MDA-MB-468 (also given as MDA-MB-435), U251, HeLa
Description: as §1, §2

T1 sequence (P40763 whole entry): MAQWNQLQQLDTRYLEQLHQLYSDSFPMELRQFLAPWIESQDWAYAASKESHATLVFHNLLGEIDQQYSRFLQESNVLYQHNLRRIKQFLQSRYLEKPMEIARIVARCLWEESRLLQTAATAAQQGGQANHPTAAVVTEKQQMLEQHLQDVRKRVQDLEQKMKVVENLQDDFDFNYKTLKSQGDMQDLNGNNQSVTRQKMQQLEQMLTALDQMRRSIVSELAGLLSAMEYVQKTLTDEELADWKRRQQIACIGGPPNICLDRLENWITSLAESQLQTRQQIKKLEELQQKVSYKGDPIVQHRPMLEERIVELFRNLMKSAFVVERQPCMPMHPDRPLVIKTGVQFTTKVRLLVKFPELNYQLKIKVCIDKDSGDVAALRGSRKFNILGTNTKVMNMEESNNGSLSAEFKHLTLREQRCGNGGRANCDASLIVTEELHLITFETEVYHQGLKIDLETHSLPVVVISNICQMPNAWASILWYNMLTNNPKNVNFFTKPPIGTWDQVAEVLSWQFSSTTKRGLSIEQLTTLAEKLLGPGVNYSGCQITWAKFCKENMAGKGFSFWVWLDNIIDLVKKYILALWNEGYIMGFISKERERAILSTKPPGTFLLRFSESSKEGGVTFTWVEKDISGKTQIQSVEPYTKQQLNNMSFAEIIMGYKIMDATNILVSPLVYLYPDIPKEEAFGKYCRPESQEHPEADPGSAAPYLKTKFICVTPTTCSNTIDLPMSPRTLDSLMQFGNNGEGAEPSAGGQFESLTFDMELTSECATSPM
T2 sequence (P42227 whole entry): as the sequence (P40763 whole entry) above, with E760D counted along it
Sequence of GST protein (P08515 whole entry): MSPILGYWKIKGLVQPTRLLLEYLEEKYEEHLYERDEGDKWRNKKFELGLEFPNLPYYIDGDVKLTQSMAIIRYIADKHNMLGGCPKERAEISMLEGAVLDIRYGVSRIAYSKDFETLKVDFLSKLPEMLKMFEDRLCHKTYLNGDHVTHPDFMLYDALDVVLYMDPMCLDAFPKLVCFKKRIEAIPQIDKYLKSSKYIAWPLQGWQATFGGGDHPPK

## CCCCC[C@@H](O)[C@H]1C(=O)O[C@H](C)[C@@H](O)/C=C/C=C/C=C/C=C/C=C(\C)[C@@H](O)C[C@H](O)C[C@H](O)C[C@H](O)C[C@H](O)C[C@H](O)C[C@@H]1O [filipin]
[1]; 0.5 ug/ml
  effect of caveolin inhibitor on ST3G12-PS uptake: little effect
[1]; 1.0 ug/ml
  effect of caveolin inhibitor on ST3G12-PS uptake: greater effect

## O=C1NC(=NS(=O)(=O)c2cccc3ccccc23)S/C1=C\c1ccc(Br)cc1 [PS2, Pitstop2]
[1]; 30 uM and 60 uM
  effect of clathrin inhibitor on ST3G12-PS uptake: inhibited

B1: ST3G12: fully human anti-STAT3 antibody, heavy/light chain variable domains SEQ ID NO. 3/SEQ ID NO. 4 (antibody, V domains shown)
VH: QVQLVQSGAEVKKPGASVKVSCKASGYTFTSYYMHWVRQAPGQGLEWMGIINPSGGSTSYAQKFQGRVTMTRDTSTSTVYMELSSLRSEDTAVYYCARSDYVHSFDIWGQGTMVTVSS
VL: QPVLTQPPSASALLGASIKLTCTLSSEHSTYTVEWYQQRPGRSPQYIMNVKSDGSYNKGDGIPDRFMGSSSGADRYLTFSNLQSDDEAEYHCGESHRIDGQVGVVFGGGTKLTVL
[2]
  Rmax: 174
[2]; 1:1 (Langmuir) binding model
  Ka: 59700 M⁻¹ s⁻¹
  Kd: 0.000322 s⁻¹
[3]
  binding to GST protein: No binding
[4]; CT-26 cells
  binding to CT-26 mouse cell line: able to recognize mouse STAT3
[4]; MC-38 cells
  binding to MC-38 mouse cell line: able to recognize mouse STAT3
[5]
  antibody binding to U251 cells, naked versus conjugated: considerably lower
[6]; FIG. 8A
  effect on STAT3 phosphorylation in MCF-10A cells: little to no effect
[6]; FIG. 8B
  effect on STAT3 phosphorylation in MCF-7 cells: little to no effect
[7]
  cell penetration / internalization by microscopy: no internalization
[8]
  penetration of tumor spheroids: did not
[9]
  AUC (0-336 hr): 254.6 µg·days/mL
  Cmax: 79.7 µg/mL
  Vs s: 0.0833 L/kg
[10]
  CI: 18.7 mL/day/kg
  T ½: 76.5 h
[11]; HeLa cells, FIG. 3C
  binding to HeLa cell line: strong binding
[11]; MDA-MB-468 cells, FIG. 3A
  STAT3 binding in MDA-MB-468 cells: bound STAT3
[11]; U251 cells, FIG. 3B / 3C
  STAT3 binding in U251 cells: bound STAT3; also recorded: strong binding
